Assay [1] concerns the target T1, GDNF (Homo sapiens, UniProt P39905).
T1 construct: purchased PeproTech, Ltd. or R&D Systems, Inc
T1 sequence (P39905 78-211 limits assumed): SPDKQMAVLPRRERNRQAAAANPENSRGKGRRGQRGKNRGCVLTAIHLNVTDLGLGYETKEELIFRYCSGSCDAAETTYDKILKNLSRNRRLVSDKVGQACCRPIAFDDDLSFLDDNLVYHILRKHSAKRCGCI
Description: SPR: direct binding of heparin or desulfated heparins to GDNF cuvette. Here is the method:
(§1) Specifically desulfated heparins (Takano et al., 1998) were used to assess the involvement of different sulfate groups in the GDNF-heparin interaction by following direct binding to GDNF cuvette, or by competing out GDNF binding to the heparin-BSA cuvette. Dissociation constants were determined from direct binding using increasing GDNF concentrations and by fitting the data to R=(Rmax*C)/(Kd+C) for heparin. For desulfated heparins, the best fit was achieved using equation R=(Rmax1*C)/(Kd1+C)+(Rmax2*C)/(Kd2+C), where Kd1 and Kd2 are apparent dissociation constants derived for two heparin sites of different affinities with maximum equilibrium response Rmax1 and Rmax2, respectively.

The target of assay [2] is T1, GDNF. Description: SPR: competition of GDNF binding to heparin-BSA cuvette by heparin and desulfated heparins. The settings on record: competing out GDNF binding to heparin-BSA cuvette. As to the method:
as §1

Assay [3] deals with rat embryonic hippocampal neurons. In words: Neurite outgrowth assay in E17 rat hippocampal neurons. It is filed as cell-based. The settings on record: E17 rat hippocampal neurons. Here is the method:
Hippocampi were dissected from E17 embryonic rat brains under the microscope and transferred to the preparation media (HBBS without Ca^2+ and Mg^2+ supplemented with 1 mM sodium pyruvate (Gibco) and buffered by 10 mM Hepes pH 7.2), then partially digested by papain and triturated in the preparation media supplemented with DNase I. Cells were washed with HBBS containing Ca^2+ and Mg^2+ and transferred to the growth media (Neurobasal media with B27 supplement, 2 mM L-glutamine, 25 μM glutamic acid and penicillin and streptomycin (Gibco)). For enzymatic treatments neurons were kept in the growth media supplemented with 0.2% BSA at +37° C. for one hour. After the treatment cells in the same media were seeded on the protein-coated cover slips (see above) and after 10 min, the media was changed for B27-free media. Neurons were incubated at +37° C., 5% CO2 for 18 hours.
For immunocytochemistry neurons were washed with PBS and fixed with 4% PFA, permeabilized with 0.1% Triton X-100 and stained with rabbit polyclonal antiserum to Protein Gene Product 9.5 (Affiniti), neuron-specific Class III tubulin-βIII clone Tuj1 antibodies (BABCO) or with antibodies against the neurofilament triplet, 13AA8 (Arumäe et al., 1993). Secondary antibodies were goat anti-rabbit or anti-mouse Alexa488-conjugated (Molecular Probes).
The immunostained cultures were viewed using the ×20 objective of a Zeiss Axioplan 2 fluorescent microscope (Zeiss). Neurons with at least two times longer than cell body diameter processes were considered process-bearing. Three cover slips were used in parallel and 100 neurons per cover slip were counted. Results were derived from 3 to 5 independent experiments.

A further assay deals with SHEP cells. In words: SHEP cell adhesion and spreading assay on immobilized proteins. It is filed as cell-based, human. The settings on record: for adherence and spreading of SHEP cells on immobilized protein: protein immobilized on plastic microplate. As to the method: Cell adhesion assays were essentially performed as described elsewhere (Weinacker et al., 1994). To prepare protein-coated surfaces the protein of interest (10 μg/ml in PBS) was applied to 96-well ELISA (Greiner) plates or to glass cover slips for 12-18 hours at +4° C. After incubation, the surfaces were washed with PBS and blocked with 1% globulin-free BSA for two hours. Some GDNF coated surfaces were incubated with 20 μg/ml of G-90 (Amgen) GDNF function-blocking antibodies (Xu et al., 1998) for 2 hours at room temperature.
Subconfluent SHEP cells were harvested in PBS supplemented with 10 mM EDTA for 5 min at 37° C. Cells were washed with incubation buffer (RPMI 1640, 0.2% BSA, 15 mM HEPES pH 7.2) and 10000-40000 cells/well plated on the protein coated surface. Plates were centrifuged for 5 min at 10 g and incubated for one hour at 37° C. in 5% CO2. After incubation cells were washed with PBS, fixed with methanol supplemented with crystal violet for 15 min at room temperature and washed again with PBS. The remaining cells were counted using a Leica DMIRB inverted microscope with 10× objective in 5 fields per well.
Some cells were pretreated with heparinase III, PI-PLC (see above), 0.3 U/ml chodroitinase ABC for one hour at 37° C., 5% CO2, or with 20 μg/ml of NCAM blocking antibodies (AB5032, Chemicon Inc.) for 15-30 min on ice.
After one hour of incubation in serum-free medium unattached cells were removed by washing. The remaining cells were stained and counted on Leica DMIRB inverted microscope with a 10× objective in 5 fields per well and the resulting cell number was calculated for the whole well.
Live SHEP cells spreading on immobilized GDNF were imaged for 20 minutes using the Till imaging system with an Imago-QE digital camera (Till Photonics) equipped with heating (+37° C.) and CO2 supply (5%) chambers.

In another assay the target is T2, syndecan-3 ectodomain (Rattus norvegicus, UniProt P33671).
T2 construct: purified as an ectodomain from early postnatal rat brains; from tissue; host or cells: early postnatal rat brain
T2 sequence (P33671 45-387 limits assumed): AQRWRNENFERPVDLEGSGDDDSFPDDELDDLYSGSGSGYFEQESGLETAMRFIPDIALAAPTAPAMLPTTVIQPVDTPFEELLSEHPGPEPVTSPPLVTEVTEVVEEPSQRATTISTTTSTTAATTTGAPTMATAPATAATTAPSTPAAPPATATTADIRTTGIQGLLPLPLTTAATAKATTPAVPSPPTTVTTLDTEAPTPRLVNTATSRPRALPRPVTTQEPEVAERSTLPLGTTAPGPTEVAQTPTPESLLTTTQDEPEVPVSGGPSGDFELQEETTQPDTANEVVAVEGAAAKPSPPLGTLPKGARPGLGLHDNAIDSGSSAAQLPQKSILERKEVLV
In words: SPR (IAsys): syndecan-3 ectodomain interaction with GFLs cuvette. The format is binding. Particulars: syndecan-3 ectodomain in solution. Here is the method: (§2) The affinities of GFLs for heparin and heparin-like molecules (e.g. syndecan-3) were determined by plasmon surface resonance using the IAsys system (Affinity Sensors, Cambridge, UK). Planar aminosilane cuvettes (Affinity Sensors) were used for protein coupling to avoid problems with mass transport, which occur frequently with matrix surfaces. In the initial approach, heparin-BSA was immobilized to the cuvette surface using the manufacturer's instructions and different ligand concentrations were used to determine association (ka) and dissociation (kdis) rates using the IAsys Fastfit software. The dissociation constant Kd was determined from the binding dynamics as […], or from equilibrium response (R) using a simple Langmuir fit: R=(Rmax*C)/(Kd+C), where C is the ligand concentration. […] The dissociation constants were determined from binding dynamics and equilibrium response. The same cuvettes were used to test binding of heparan sulfate proteoglycan syndecan-3, which was purified as an ectodomain from early postnatal rat brains by HB-GAM affinity chromatography (Raulo et al., 1994).
(§3) Binding was analyzed using IAsys cuvettes with immobilized heparin-BSA or GFLs. The dissociation constant Kd was determined from dynamics of association and dissociation (Kd=kdis/ka), or from equilibrium response R (R=(Rmax*C)/(Kd+C), where C is ligand concentration).

Assay [4] can be described thus: SPR (IAsys): GFLs interaction with heparin-BSA cuvette. It is filed as binding. The settings on record: for ka (×10^−5) (M^−1s^−1) / kdis: GFL in solution; for Kd = kdis/ka: from dynamics; for Kd: from equilibrium response. Here is the method: as §2, §3
A short description of assay [5]: SPR (IAsys): heparin interaction with GFLs cuvette. It is filed as binding. Particulars: for ka (×10^−5) (M^−1s^−1) / kdis: heparin in solution; for Kd = kdis/ka: from dynamics. As to the method: as §2, §3
Assay [6] in a line: Binding of ^125I-labeled GFLs to heparin-sepharose column, step NaCl elution. Particulars: for NaCl concentration at elution from heparin-sepharose column: ^125I-GFLs, step NaCl gradient; for binding to heparin-sepharose column: ^125I-labeled GFLs. Here is the method:
GFL iodination was performed as described (Lindahl et al., 2001). Heparin-sepharose column (Amersham Biosciences) chromatography was performed to assess GFL binding to heparin. GDNF, ARTN, NRTN and PSPN were purchased from PeproTech, Ltd. or R&D Systems, Inc. GFLs were enzymatically labeled with carrier-free [^125I]NaI (Amersham Biosciences) by the lactoperoxidase method to a specific activity of 100000-200000 cpm/ng as described elsewhere (Lindahl et al., 2001). 15000-20000 cpm of iodinated GFLs, together with 10 μg of the same unlabeled protein as a carrier, were injected into a 1 ml heparin-sepharose column (Amersham Biosciences) in phosphate buffer pH 7.2 containing 100 mM NaCl and 10 mg/ml of BSA. After washing with 5 volumes of the same buffer, iodinated GFLs were eluted from the column by step elution (2 ml) with increasing NaCl concentration. The resulting fractions were counted on Rackbeta 1214 (LKB/Wallac) scintillation counter.

[7] abbreviates: apparent Kd from equilibrium response, read-out: Kd1.
Setting [8] is: apparent Kd of second site, two-site fit, read-out: Kd2.
[9] abbreviates: pretreatment of cells with SFK inhibitor.
[10] abbreviates: GFLs cuvette, from equilibrium response, read-out: Kd (equilibrium).

Values joined by “and” are separate entries in the source; they are usually repeats but may differ in a detail not shown here. Equal entries are not always repeated. Where two headings read alike, the source gives them in different places.

The IC50 is the midpoint of a concentration-inhibition curve. For the molecule 2-O-desulfated heparin, the Kd at GDNF [1] (setting [7]) turned out to be 35.4 ± 7.5 nM; on GDNF [1] (setting [8]), 9500 nM. On GDNF [2], the concentration for half-maximal inhibition (IC50) stood at 4.3 ng/mL.

Turning to 6-O-desulfated heparin, the Kd at GDNF [1] (setting [7]) was 36.3 ± 4.6 nM; on GDNF [1] (setting [8]), 18000 nM and 18100 nM. Moreover, the concentration for half-maximal inhibition (IC50) on GDNF [2] worked out at 1.3 ng/mL.

`CN(C)S(=O)(=O)c1ccc2c(c1)/C(=C/c1cc3c([nH]1)CCCC3)C(=O)N2` [SU6656, reference compound]: the “effect of inhibitor on neurite outgrowth on immobilized GDNF” value in assay [3] is “prevented neurite outgrowth”. Further, in the assay with SHEP cells (setting [9]), the “effect on SHEP cell adherence on immobilized GDNF” value is reported as “did not impair their adherence” and the “effect on SHEP cell spreading on immobilized GDNF” value was “diminished their spreading”.

As to “ARTN: artemin, secreted growth factor, GDNF family ligand”, in the assay with syndecan-3 ectodomain, the “ka (×10^−5) (M^−1s^−1)” value is 6.3 ± 0.7 (×10^−5) M^−1s^−1. In assay [4], the “ka (×10^−5) (M^−1s^−1)” value was 0.09 (×10^−5) M^−1s^−1, the “kdis” value was determined as 0.0013 s⁻¹, the “Kd = kdis/ka” value is 148 ± 39 nM and the Kd was determined as 187 ± 34 nM. For the same molecule, in assay [5] (GFLs cuvette), the “ka (×10^−5) (M^−1s^−1)” value is listed as 8.0 (×10^−5) M^−1s^−1, the “kdis” value was found to be 0.042 s⁻¹ and the “Kd = kdis/ka” value amounted to 44.7 ± 12.3 nM. Further, the Kd in assay [5] (setting [10]) worked out at 13 ± 3.9 nM. In addition, the “adherence and spreading of SHEP cells on immobilized protein” value (shortened to “adherence and spreading of SHEP cells”) with SHEP cells is “induced adherence and spreading”. Further, in assay [6], the “NaCl concentration at elution from heparin-sepharose column” value (“NaCl concentration at elution” for short) lay in the range of 1 to 1.5 M and the “binding to heparin-sepharose column” value is on record as “bind strongly to heparin”.

For N-desulfated heparin, the results for the Kd at GDNF [1] (setting [7]) and at GDNF [1] (setting [8]) were 29.1 ± 6.4 nM and 11400 nM, respectively. In addition, at GDNF [2], the “IC50” value came out at 2.3 ng/mL.

B1: NRTN: neurturin, secreted growth factor, GDNF family ligand (protein)
chain: ARLGARPCGLRELEVRVSELGLGYASDETVLFRYCAGACEAAARVYDLGLRRLRQRRRLRRERVRAQPCCRPTAYEDEVSFLDAHSRYHTVHELSARECACV
Turning to B1, the “ka (×10^−5) (M^−1s^−1)” value with syndecan-3 ectodomain is given as 7.5 ± 1.6 (×10^−5) M^−1s^−1. Further, in assay [4], the “ka (×10^−5) (M^−1s^−1)” value is on record as 3.2 (×10^−5) M^−1s^−1, the “kdis” value was found to be 0.018 s⁻¹, the “Kd = kdis/ka” value is given as 59.4 ± 6.2 nM and the Kd came out at 47 ± 7 nM. Also, in assay [5] (GFLs cuvette), the “ka (×10^−5) (M^−1s^−1)” value is recorded as 1.9 (×10^−5) M^−1s^−1, the “kdis” value amounted to 0.022 s⁻¹ and the “Kd = kdis/ka” value is 114 ± 44 nM. The Kd in assay [5] (setting [10]) was found to be 23.7 ± 7.7 nM. Also, in assay [5] (SPR, dynamics, read-out: dynamics-derived Kd for heparin), the Kd is > 100 nM. The “adherence and spreading of SHEP cells” value in the assay on SHEP cells is “induced adherence and spreading”. In addition, in assay [6], the “NaCl concentration at elution” value is 1.5 M and the “binding to heparin-sepharose column” value is on record as “bind strongly to heparin”.

B2: PSPN: persephin, secreted growth factor, GDNF family ligand (protein)
chain: ALSGPCQLWSLTLSVAELGLGYASEEKVIFRYCAGSCPRGARTQHGLALARLQGQGRAHGGPCCRPTRYTDVAFLDDRHRWQRLPQLSAAACGCGG
B2: the “neurite outgrowth on immobilized protein” value in assay [3] (18 hours) is on record as “failed to form processes”. Besides, in assay [4], the “ka (×10^−5) (M^−1s^−1)” value is given as 0.87 (×10^−5) M^−1s^−1, the “kdis” value was 0.093 s⁻¹, the “Kd = kdis/ka” value is 1072 ± 118 nM and the Kd is > 1000 nM. Further, in assay [5] (GFLs cuvette), the “ka (×10^−5) (M^−1s^−1)” value is recorded as 0.02 (×10^−5) M^−1s^−1 and the “kdis” value amounted to 0.064 s⁻¹. The Kd in assay [5] (SPR, dynamics, read-out: Kd for heparin (dynamics)) stood at 29100 nM. Also, in assay [5] (SPR, equilibrium, read-out: Kd for heparin (equilibrium)), the Kd was found to be 11100 nM. Besides, the “adherence and spreading of SHEP cells” value with SHEP cells is “failed to adhere and spread”. In assay [6], the “NaCl concentration at elution” value is 0.5 M and the “binding to heparin-sepharose column” value is reported as “does not”.

The values are drawn from US8034572B2, “Receptor for GDNF family ligands” (priority 2006, dated 2011).
